{
  "source": "patent US20150105316A1",
  "about": "(TREVENA, published 2015)",
  "note": "Where no end group is shown, it is not given here. [ ]: non-standard residue; d: D form. Sar = CNCC(=O)O",
  "data": [
    {"target": "T1, human angiotensin 2 type 1 receptor (human, UniProt P30556 1-359)", "T1 sequence (looked up)": "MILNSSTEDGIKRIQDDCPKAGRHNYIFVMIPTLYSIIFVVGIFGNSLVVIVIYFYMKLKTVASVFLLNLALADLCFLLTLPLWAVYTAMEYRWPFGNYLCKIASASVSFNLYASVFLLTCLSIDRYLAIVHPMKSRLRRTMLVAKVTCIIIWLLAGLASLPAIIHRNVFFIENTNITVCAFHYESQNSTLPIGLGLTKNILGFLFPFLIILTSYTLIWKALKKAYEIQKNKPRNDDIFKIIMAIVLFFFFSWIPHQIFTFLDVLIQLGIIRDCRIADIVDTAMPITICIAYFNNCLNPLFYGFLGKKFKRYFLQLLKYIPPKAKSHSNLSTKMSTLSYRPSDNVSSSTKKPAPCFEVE", "test": "cell-based or functional assay", "units": {"IP1 G-protein assay EC50": "nM"}, "values": [
      {"binder": "[Sar]RVYPHPL", "note": "[SEQ ID NO: 5 (Sar-Arg-Val-Tyr-Pro-His-Pro-Leu)]", "IP1 G-protein assay EC50": 3.2, "IP1 G-protein assay Span": "< 103", "IP1 G-protein assay pEC50": "< 9.2"},
      {"binder": "[Sar]RVYPHPS", "note": "[SEQ ID NO: 8 (Sar-Arg-Val-Tyr-Pro-His-Pro-Ser)]", "IP1 G-protein assay EC50": 6310, "IP1 G-protein assay Span": "< 103", "IP1 G-protein assay pEC50": "< 9.2"},
      {"binder": "[Sar]RVYPHPV", "note": "[SEQ ID NO: 6 (Sar-Arg-Val-Tyr-Pro-His-Pro-Val)]", "IP1 G-protein assay EC50": 63.1, "IP1 G-protein assay Span": "< 103", "IP1 G-protein assay pEC50": "< 9.2"},
      {"binder": "[Sar]RVYPHP[dA]", "note": "[SEQ ID NO: 60 (Sar-Arg-Val-Tyr-Pro-His-Pro-D-Ala)]", "IP1 G-protein assay EC50": "> 1.3", "IP1 G-protein assay Span": "< 103", "IP1 G-protein assay pEC50": "< 9.2"},
      {"binder": "[Sar]RVYPHPI", "note": "[SEQ ID NO: 4 (Sar-Arg-Val-Tyr-Pro-His-Pro-Ile)]", "IP1 G-protein assay EC50": 2.5, "IP1 G-protein assay Span": "< 103", "IP1 G-protein assay pEC50": "< 9.2"},
      {"binder": "[Sar]RVYPHPT", "note": "[SEQ ID NO: 7 (Sar-Arg-Val-Tyr-Pro-His-Pro-Thr)]", "IP1 G-protein assay EC50": "> 10000", "IP1 G-protein assay pEC50": "> 9.2"}
    ]},
    {"target": "T2, rat angiotensin 2 type 1 receptor (rat, UniProt P25095 1-359)", "T2 sequence (looked up)": "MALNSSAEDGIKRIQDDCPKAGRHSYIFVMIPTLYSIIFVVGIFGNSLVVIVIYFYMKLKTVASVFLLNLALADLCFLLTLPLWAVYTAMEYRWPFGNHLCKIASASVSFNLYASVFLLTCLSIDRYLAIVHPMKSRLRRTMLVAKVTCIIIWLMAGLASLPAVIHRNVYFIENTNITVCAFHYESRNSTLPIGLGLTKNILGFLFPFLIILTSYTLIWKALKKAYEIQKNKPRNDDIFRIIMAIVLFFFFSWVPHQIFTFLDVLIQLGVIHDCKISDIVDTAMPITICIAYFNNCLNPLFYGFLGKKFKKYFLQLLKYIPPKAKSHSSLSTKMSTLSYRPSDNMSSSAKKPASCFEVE", "test": "cell-based or functional assay", "units": {"IP1 G-protein assay EC50": "nM"}, "values": [
      {"binder": "[Sar]RVYPHPL", "note": "[SEQ ID NO: 5 (Sar-Arg-Val-Tyr-Pro-His-Pro-Leu)]", "IP1 G-protein assay EC50": "> 0.6", "IP1 G-protein assay Span": "< 104", "IP1 G-protein assay pEC50": "< 9.2"},
      {"binder": "[Sar]RVYPHPS", "note": "[SEQ ID NO: 8 (Sar-Arg-Val-Tyr-Pro-His-Pro-Ser)]", "IP1 G-protein assay EC50": "> 0.6", "IP1 G-protein assay pEC50": "> 9.2"},
      {"binder": "[Sar]RVYPHPV", "note": "[SEQ ID NO: 6 (Sar-Arg-Val-Tyr-Pro-His-Pro-Val)]", "IP1 G-protein assay EC50": "> 0.6", "IP1 G-protein assay Span": "< 104", "IP1 G-protein assay pEC50": "< 9.2"},
      {"binder": "[Sar]RVYPHP[dA]", "note": "[SEQ ID NO: 60 (Sar-Arg-Val-Tyr-Pro-His-Pro-D-Ala)]", "IP1 G-protein assay EC50": "> 0.6", "IP1 G-protein assay Span": "< 104", "IP1 G-protein assay pEC50": "< 9.2"},
      {"binder": "[Sar]RVYPHPI", "note": "[SEQ ID NO: 4 (Sar-Arg-Val-Tyr-Pro-His-Pro-Ile)]", "IP1 G-protein assay EC50": "> 0.6", "IP1 G-protein assay pEC50": "> 9.2"},
      {"binder": "[Sar]RVYPHPT", "note": "[SEQ ID NO: 7 (Sar-Arg-Val-Tyr-Pro-His-Pro-Thr)]", "IP1 G-protein assay EC50": "> 0.6", "IP1 G-protein assay pEC50": "> 9.2"}
    ]},
    {"target": "T1, human angiotensin 2 type 1 receptor", "test": "cell-based or functional assay", "remark": "another data set of the same source", "units": {"beta-arrestin2 assay EC50": "nM"}, "values": [
      {"binder": "[Sar]RVYPHPL", "note": "[SEQ ID NO: 5 (Sar-Arg-Val-Tyr-Pro-His-Pro-Leu)]", "beta-arrestin2 assay EC50": "> 3.2", "beta-arrestin2 assay Span": "< 101", "beta-arrestin2 assay pEC50": "< 8.5"},
      {"binder": "[Sar]RVYPHPS", "note": "[SEQ ID NO: 8 (Sar-Arg-Val-Tyr-Pro-His-Pro-Ser)]", "beta-arrestin2 assay EC50": "> 3.2", "beta-arrestin2 assay Span": "< 101", "beta-arrestin2 assay pEC50": "< 8.5"},
      {"binder": "[Sar]RVYPHPV", "note": "[SEQ ID NO: 6 (Sar-Arg-Val-Tyr-Pro-His-Pro-Val)]", "beta-arrestin2 assay EC50": "> 3.2", "beta-arrestin2 assay Span": "< 101", "beta-arrestin2 assay pEC50": "< 8.5"},
      {"binder": "[Sar]RVYPHP[dA]", "note": "[SEQ ID NO: 60 (Sar-Arg-Val-Tyr-Pro-His-Pro-D-Ala)]", "beta-arrestin2 assay EC50": "> 3.2", "beta-arrestin2 assay Span": "< 101", "beta-arrestin2 assay pEC50": "< 8.5"},
      {"binder": "[Sar]RVYPHPI", "note": "[SEQ ID NO: 4 (Sar-Arg-Val-Tyr-Pro-His-Pro-Ile)]", "beta-arrestin2 assay EC50": "> 3.2", "beta-arrestin2 assay Span": "< 101", "beta-arrestin2 assay pEC50": "< 8.5"},
      {"binder": "[Sar]RVYPHPT", "note": "[SEQ ID NO: 7 (Sar-Arg-Val-Tyr-Pro-His-Pro-Thr)]", "beta-arrestin2 assay EC50": "> 3.2", "beta-arrestin2 assay Span": "< 101", "beta-arrestin2 assay pEC50": "< 8.5"}
    ]},
    {"target": "T2, rat angiotensin 2 type 1 receptor", "test": "cell-based or functional assay", "remark": "another data set of the same source", "units": {"beta-arrestin2 assay EC50": "nM"}, "values": [
      {"binder": "[Sar]RVYPHPL", "note": "[SEQ ID NO: 5 (Sar-Arg-Val-Tyr-Pro-His-Pro-Leu)]", "beta-arrestin2 assay EC50": "> 3.2", "beta-arrestin2 assay Span": "< 105", "beta-arrestin2 assay pEC50": "< 8.5"},
      {"binder": "[Sar]RVYPHPS", "note": "[SEQ ID NO: 8 (Sar-Arg-Val-Tyr-Pro-His-Pro-Ser)]", "beta-arrestin2 assay EC50": "> 3.2", "beta-arrestin2 assay Span": "< 105", "beta-arrestin2 assay pEC50": "< 8.5"},
      {"binder": "[Sar]RVYPHPV", "note": "[SEQ ID NO: 6 (Sar-Arg-Val-Tyr-Pro-His-Pro-Val)]", "beta-arrestin2 assay EC50": "> 3.2", "beta-arrestin2 assay Span": "< 105", "beta-arrestin2 assay pEC50": "< 8.5"},
      {"binder": "[Sar]RVYPHP[dA]", "note": "[SEQ ID NO: 60 (Sar-Arg-Val-Tyr-Pro-His-Pro-D-Ala)]", "beta-arrestin2 assay EC50": "> 3.2", "beta-arrestin2 assay Span": "< 105", "beta-arrestin2 assay pEC50": "< 8.5"},
      {"binder": "[Sar]RVYPHPI", "note": "[SEQ ID NO: 4 (Sar-Arg-Val-Tyr-Pro-His-Pro-Ile)]", "beta-arrestin2 assay EC50": "> 3.2", "beta-arrestin2 assay Span": "< 105", "beta-arrestin2 assay pEC50": "< 8.5"},
      {"binder": "[Sar]RVYPHPT", "note": "[SEQ ID NO: 7 (Sar-Arg-Val-Tyr-Pro-His-Pro-Thr)]", "beta-arrestin2 assay EC50": "> 3.2", "beta-arrestin2 assay Span": "< 105", "beta-arrestin2 assay pEC50": "< 8.5"}
    ]}
  ]
}
